According to publication PMC517823, “Mechanism of Association and Reciprocal Activation of Two GTPases” (PLoS Biology, 2004):
Residue numbers refer to the chain shown, from its start. Names and notes keep the numbering of the source.

Assays:
Ffh [1] = molecular target: T1, Ffh (UniProt P0AGD7 1-453); assay: other fluorescence titration; tryptophan fluorescence of FtsY, time course at 335 nm; 1 uM mutant or wild-type FtsY, 2 uM SRP, 100 uM GppNHp, complex formation started by addition of Mg2+; settings: both partners purified
T1 construct: Ffh, the GTPase of the bacterial signal recognition particle; The methods of the fluorescence experiment name 'SRP' (2 uM), not Ffh alone; also called SRP GTPase; wild-type Ffh
T1 sequence (looked up): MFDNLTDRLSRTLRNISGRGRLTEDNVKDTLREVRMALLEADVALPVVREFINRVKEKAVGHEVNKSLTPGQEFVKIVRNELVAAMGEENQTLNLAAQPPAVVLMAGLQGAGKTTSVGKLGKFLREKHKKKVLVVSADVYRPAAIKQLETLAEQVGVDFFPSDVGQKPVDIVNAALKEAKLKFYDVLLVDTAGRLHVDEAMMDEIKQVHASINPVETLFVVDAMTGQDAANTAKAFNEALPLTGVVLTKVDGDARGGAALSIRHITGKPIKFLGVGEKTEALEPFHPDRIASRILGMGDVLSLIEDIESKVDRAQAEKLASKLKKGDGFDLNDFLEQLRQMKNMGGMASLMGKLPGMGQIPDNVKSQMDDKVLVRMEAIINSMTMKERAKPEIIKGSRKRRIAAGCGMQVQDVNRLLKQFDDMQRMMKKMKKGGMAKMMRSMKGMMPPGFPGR

Ffh [2] = molecular target: T1, Ffh; assay: GTPase inhibition (competition) assay; mutant FtsY varied as inhibitor of the GTPase reaction of Ffh with subsaturating wild-type FtsY; under these conditions Ki equals Kd of the Ffh-FtsY(mt) complex; fit to equation 3; settings: both partners purified

B1: wild-type FtsY(47-497) (domain or fragment, Escherichia coli, UniProt P10121 47-497, looked up)
chain: ASEQAVEEQPQAHTEAEAETFAADVVEVTEQVAESEKAQPEAEVVAQPEPVVEETPEPVAIEREELPLPEDVNAEAVSPEEWQAEAETVEIVEAAEEEAAKEEITDEELETALAAEAAEEAVMVVPPAEEEQPVEEIAQEQEKPTKEGFFARLKRSLLKTKENLGSGFISLFRGKKIDDDLFEELEEQLLIADVGVETTRKIITNLTEGASRKQLRDAEALYGLLKEEMGEILAKVDEPLNVEGKAPFVILMVGVNGVGKTTTIGKLARQFEQQGKSVMLAAGDTFRAAAVEQLQVWGQRNNIPVIAQHTGADSASVIFDAIQAAKARNIDVLIADTAGRLQNKSHLMEELKKIVRVMKKLDVEAPHEVMLTIDASTGQNAVSQAKLFHEAVGLTGITLTKLDGTAKGGVIFSVADQFGIPIRYIGVGERIEDLRPFKADDFIEALFARED
notes: FtsY, SRP receptor, Escherichia coli, residues 47-497; also called SRP receptor; SR; source: expressed and purified as in Powers and Walter 1997; Peluso et al. 2001
B1 was tested, and the koff (Ffh [1]) was 0.0036 s⁻¹ and the kon (Ffh [1]) was 63600 M⁻¹ s⁻¹.

B2: FtsY A335(140)W (domain or fragment, Escherichia coli, UniProt P10121 47-497, looked up)
chain: B1 chain with A289W
notes: FtsY, Escherichia coli, residues 47-497, with A335W; number in parentheses is the T. aquaticus number; also called mutant FtsY A335(140)W; Class II mutant; source: expressed and purified as wild-type FtsY (Powers and Walter 1997; Peluso et al. 2001)
B2 was tested, and the koff (Ffh [1]) was 0.0042 s⁻¹, the kon (Ffh [1]) was 63400 M⁻¹ s⁻¹ and the Ki (Ffh [2]) was 16 nM.
